From patent US20140193915, “COMPOSITIONS AND METHODS FOR CUSTOM SITE-SPECIFIC DNA RECOMBINASES” (Monsanto Technology, LLC, published 2014)
Residue numbers refer to the chain shown, from its start.

Columns and labels:
Assay in all cases: cell_activity; E. coli
sN-TALER IV-5 = biological target: T1, sN-TALER IV-5 (synthetic); conditions: tags: 6-His
T1 chain: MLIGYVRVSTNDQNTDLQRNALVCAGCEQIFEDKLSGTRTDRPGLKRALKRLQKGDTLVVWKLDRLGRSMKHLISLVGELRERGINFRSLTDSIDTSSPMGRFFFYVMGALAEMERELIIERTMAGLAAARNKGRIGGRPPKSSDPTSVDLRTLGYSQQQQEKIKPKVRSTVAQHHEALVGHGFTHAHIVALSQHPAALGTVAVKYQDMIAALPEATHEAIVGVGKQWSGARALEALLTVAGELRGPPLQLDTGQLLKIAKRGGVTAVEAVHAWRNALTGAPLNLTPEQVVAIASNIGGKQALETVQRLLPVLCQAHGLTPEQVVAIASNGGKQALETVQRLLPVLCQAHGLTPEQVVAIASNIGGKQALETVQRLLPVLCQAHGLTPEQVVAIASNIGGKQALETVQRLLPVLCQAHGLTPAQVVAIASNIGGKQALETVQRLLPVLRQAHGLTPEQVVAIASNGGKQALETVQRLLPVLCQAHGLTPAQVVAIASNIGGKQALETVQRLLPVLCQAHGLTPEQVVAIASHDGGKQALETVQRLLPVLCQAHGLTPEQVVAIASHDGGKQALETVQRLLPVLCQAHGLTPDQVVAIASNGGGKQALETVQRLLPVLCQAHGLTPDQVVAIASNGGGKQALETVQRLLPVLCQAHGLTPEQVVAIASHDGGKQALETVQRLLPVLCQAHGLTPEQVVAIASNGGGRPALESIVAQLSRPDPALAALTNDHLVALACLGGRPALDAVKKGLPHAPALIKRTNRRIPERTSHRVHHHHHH
In short: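 DH5alpha cells co-transformed (heat shock or electroporation) with N-TALER expression and reporter plasmids at ~1:1 mass ratio; reporter alone as control. Plated on chloramphenicol/kanamycin/X-gal, grown 37° C. for 18 to 36 hours; recombination scored by colony colour.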

sN-TALER IV-12 = biological target: T2, sN-TALER IV-12 (synthetic)
T2 chain: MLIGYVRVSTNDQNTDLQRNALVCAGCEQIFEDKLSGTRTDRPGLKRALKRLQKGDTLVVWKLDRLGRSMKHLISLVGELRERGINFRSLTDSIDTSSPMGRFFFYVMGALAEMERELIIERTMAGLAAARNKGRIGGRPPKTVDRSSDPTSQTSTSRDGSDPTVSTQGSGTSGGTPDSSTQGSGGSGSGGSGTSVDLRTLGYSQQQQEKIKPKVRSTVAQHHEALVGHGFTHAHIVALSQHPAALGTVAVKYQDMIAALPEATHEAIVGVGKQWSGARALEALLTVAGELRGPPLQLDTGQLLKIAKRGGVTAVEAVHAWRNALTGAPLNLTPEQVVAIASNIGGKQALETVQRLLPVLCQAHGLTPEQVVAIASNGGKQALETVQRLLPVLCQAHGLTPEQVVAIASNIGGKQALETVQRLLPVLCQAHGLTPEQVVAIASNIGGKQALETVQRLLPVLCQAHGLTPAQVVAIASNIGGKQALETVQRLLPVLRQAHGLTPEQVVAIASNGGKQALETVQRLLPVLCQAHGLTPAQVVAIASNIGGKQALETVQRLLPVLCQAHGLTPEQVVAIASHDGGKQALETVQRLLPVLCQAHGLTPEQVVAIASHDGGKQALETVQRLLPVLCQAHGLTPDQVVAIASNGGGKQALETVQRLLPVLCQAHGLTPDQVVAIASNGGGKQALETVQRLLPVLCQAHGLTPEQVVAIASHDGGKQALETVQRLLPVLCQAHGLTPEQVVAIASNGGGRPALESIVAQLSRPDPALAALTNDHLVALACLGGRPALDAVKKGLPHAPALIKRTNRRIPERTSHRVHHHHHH
Description: To test for recombination, E. coli DH5alpha cells were co-transformed with different combinations of TALER expression construct and TALER reporter construct pairs (Tables 6 and 7). The N-TALER expression and reporter constructs were in an approximate 1:1 mass ratio during the transformation. The co-transformed bacteria were plated on media with chloramphenicol, kanamycin, and X-gal then incubated at 37° C. for 18 to 36 hours. Control samples consisted of transformations using the reporter construct alone. Control transformants were similarly plated. The bacterial transformation protocol was either heat shock or electroporation per standard molecular biology techniques.
The N-TALER expression constructs representing the N-TALER chimeras with varying linker lengths were co-transformed with N-TALER reporter constructs with TALER central sequence lengths of 18, 20, 24, 30, 40, and 50 bp (Table 13). […] Recombination did occur, but was less efficient with the pN-TALER IV-14 (linker length of 71 amino acids) with each of the N-TALER reporters tested.

pN-TALER IV-5-EE2 = biological target: T3, pN-TALER IV-5-EE2 (synthetic); conditions: tags: 6-His
T3 chain: T1 chain with V6A, D12G, N14S, N20D, K50E, M70V, I94V, Y106H, M108T, M114V

B1: Gin20TALE+0 (dsDNA)
DNA 1: AGAAGGTATTTATATCCAAAACCATGGTTTACAGTATAAATACCTTCT
DNA 2: AGAAGGTATTTATACTGTAAACCATGGTTTTGGATATAAATACCTTCT
B1 was tested, and the activity (sN-TALER IV-5) was 4.5 score, the activity (sN-TALER IV-12) was 1 score and the activity (pN-TALER IV-5-EE2) was 1 score.
